Here are results for one variant from IntAct's records for PubMed 23890821.

The labels stand for the following.
B1: Protein Vpu (Human immunodeficiency virus type 1 group M subtype B (isolate HXB2) (HIV-1)), P05919 (parent)
chain: MQPIPIVAIVALVVAIIIAIVVWSIVIIEYRKILRQRKIDRLIDRLIERAEDSGNESEGEISALVEMGVEMGHHAPWDVDDL

This assay covers variants of B1. Conditions: with cd4_human CD4, P01730.
In the case of I18F;V22F;V26L, the “effect of a mutation on the interaction” value is recorded as “decreasing interaction strength”.
